B1: Protein Vpx (Simian immunodeficiency virus (isolate PBj14/BCL-3)), P19508 (parent)
chain: MSDPRERIPPGNSGEETIGEAFDWLDRTVEEINRAAVNHLPRELIFQVWRRSWEYWHDEMGMSVSYTKYRYLCLIQKAMFMHCKKGCRCLGGEHGAGGWRPGPPPPPPPGLA
B2: Protein Vpx (Human immunodeficiency virus type 2 subtype A (isolate Ghana-1)), P18045 (parent)
chain: MTDPRERVPPGNSGEETIGEAFEWLDRTIEALNREAVNHLPRELIFQVWQRSWRYWHDDQGMSPSYTKYRYLCLMQKAVFIHFKRGCTCLGGGHGPGGWRSGPPPPPPPGLV

Variants of: B1
Conditions: with dcaf1_human DCAF1, Q9Y4B6
Target sequence in this assay (Q9Y4B6 whole entry): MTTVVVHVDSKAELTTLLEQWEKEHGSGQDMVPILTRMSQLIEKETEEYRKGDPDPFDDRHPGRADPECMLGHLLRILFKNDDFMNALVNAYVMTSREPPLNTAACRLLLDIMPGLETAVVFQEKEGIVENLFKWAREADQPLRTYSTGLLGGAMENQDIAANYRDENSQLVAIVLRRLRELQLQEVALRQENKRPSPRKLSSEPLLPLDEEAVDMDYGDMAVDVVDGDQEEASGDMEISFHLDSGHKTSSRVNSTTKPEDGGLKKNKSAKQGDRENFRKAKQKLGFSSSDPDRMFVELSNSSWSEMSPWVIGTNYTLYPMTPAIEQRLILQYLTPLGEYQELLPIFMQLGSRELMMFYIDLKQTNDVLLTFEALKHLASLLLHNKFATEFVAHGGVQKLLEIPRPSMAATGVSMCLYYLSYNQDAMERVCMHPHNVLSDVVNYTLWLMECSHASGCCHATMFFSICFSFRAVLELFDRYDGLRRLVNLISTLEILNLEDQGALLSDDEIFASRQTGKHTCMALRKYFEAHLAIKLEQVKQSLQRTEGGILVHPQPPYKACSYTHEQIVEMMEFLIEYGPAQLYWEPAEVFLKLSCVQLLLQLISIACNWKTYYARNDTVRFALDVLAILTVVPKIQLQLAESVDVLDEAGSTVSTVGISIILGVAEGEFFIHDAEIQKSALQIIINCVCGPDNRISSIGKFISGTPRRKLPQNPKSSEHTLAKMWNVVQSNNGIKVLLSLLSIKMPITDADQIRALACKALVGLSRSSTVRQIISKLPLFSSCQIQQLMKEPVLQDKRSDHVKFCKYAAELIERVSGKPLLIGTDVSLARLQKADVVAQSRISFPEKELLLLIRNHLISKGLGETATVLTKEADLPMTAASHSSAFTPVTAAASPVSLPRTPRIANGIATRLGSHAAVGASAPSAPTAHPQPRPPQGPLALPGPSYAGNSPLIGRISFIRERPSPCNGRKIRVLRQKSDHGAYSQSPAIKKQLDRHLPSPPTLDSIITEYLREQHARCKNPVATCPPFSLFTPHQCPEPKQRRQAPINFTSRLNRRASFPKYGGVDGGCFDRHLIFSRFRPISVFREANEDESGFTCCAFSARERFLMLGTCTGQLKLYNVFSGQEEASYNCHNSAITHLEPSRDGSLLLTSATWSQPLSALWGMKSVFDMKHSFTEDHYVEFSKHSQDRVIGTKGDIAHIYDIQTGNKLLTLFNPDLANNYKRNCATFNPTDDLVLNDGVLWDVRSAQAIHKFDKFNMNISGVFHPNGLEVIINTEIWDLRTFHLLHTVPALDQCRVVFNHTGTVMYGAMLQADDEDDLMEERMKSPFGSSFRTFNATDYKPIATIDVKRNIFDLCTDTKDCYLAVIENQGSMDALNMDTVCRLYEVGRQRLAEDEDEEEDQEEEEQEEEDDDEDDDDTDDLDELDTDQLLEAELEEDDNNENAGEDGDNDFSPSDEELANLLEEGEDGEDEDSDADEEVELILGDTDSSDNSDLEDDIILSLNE

Variant | effect of a mutation on the interaction
MSDPRERIPPGNSGEETIGEAFDWLDRTVEEINRAAVNHLPRELIFQVWRRSWEYWHDEMGMSVSYTKYRYLCLIRKAMFMHCKKGCRCLGGEHGAGGWRPGPPPPPPPGLA [Q76R] | disrupting interaction

Variants of: B1
Conditions: with dcaf1_human DCAF1, Q9Y4B6
Remark: another data set of the same source
Target sequence in this assay (Q9Y4B6 whole entry): as the sequence (Q9Y4B6 whole entry) above

Variant | effect of a mutation on the interaction
MSDPRERIPPGNSGEETIGEAFDWLDRTVEEINRAAVNHLPRELIFQVWRRSWEYWHDEMGMSVSYTKYRYLCLIQAAMFMHCKKGCRCLGGEHGAGGWRPGPPPPPPPGLA [K77A] | disrupting interaction

Variants of: B2
Conditions: with dcaf1_human DCAF1, Q9Y4B6
Target sequence in this assay (Q9Y4B6 whole entry): as the sequence (Q9Y4B6 whole entry) above

Variant | effect of a mutation on the interaction
MTDPRERVPPGNSGEETIGEAFEWLDRTIEALNREAVNHLPRELIFQVWQRSWRYWHDDQGMSPSYTKYRYLCLMRKAVFIHFKRGCTCLGGGHGPGGWRSGPPPPPPPGLV [Q76R] | disrupting interaction

From IntAct's records for PubMed 19264781
